Experiment: soluble fraction after stress (log2 fold change); higher = more stays soluble; pooled small domains, quantitative proteomics
Details: stress: pH 4
Method in brief: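 Aggregation propensity here comes from the fold change in the soluble amount of each small protein domain after acid stress, measured in pooled custom libraries by high-throughput quantitative proteomics. The acid stress was pH 4. On the log2 scale, higher values mean more of the domain stayed soluble.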

Point of comparison: “HMAEIIVHEINRHLGESDEPVEFPEERREEAVAELLKNFHNDDAFRKMDDGKYEVALDGEAVREAARSLLA”, “soluble fraction (log2)” value -0.256. Against it:
- HMQKDYKTRLQEYYAKVGKKVNYMDSSTGPDHDKKFQTQVFLDKEIIGVGEGKSKKSSQQEAAKQALEKI — higher, ≥ 0.43
- HMGTEITEQRAKEIALENAKVAESDVTAMRVKKEMDDGVWRYDVEFYVQNKEYDYEINAMDGTILSVDYD — higher, 0.0797
- HMFPNLTNEEQQVMKVLAKTNDLQINMLSVQSNLPIARLTALLFSMEMKGVVKTLAGGVYHLL — higher, 0.375
- HMKIRKAVIPAAGLGTRVLPASKSIPKEMLPIVDKPVIQYIVEEAVKAGITEILIITGRGKGAIEDHFDRS — higher, 0.0275
- HMVNEALDEFFVGLKNLYESATGKPAIAGAHFDGEPKTDFEKLMYLGYQIIRPAQAYPSALKAYERAIARS — lower, -1.15
- HMDYKYYIVKEPMVVKNLELPVGTRIVYFNTSLFGDSESSRPLKEKNIYQIFFPDDKPLIWGGVPVSLIER — lower, -0.546
- HMKSLHSEVTDRIRQLIVESHLQPGQRVPELEISRDLGVSRTPIREALKVLAAEGLVELLPLRGAMVK — within 0.2 log units, -0.104
- HMYSYSGSVINTYKVPVSVVLKDANGSAIASWDLPVDQSLGISAKDIATSSGTIEITGDGVNETKTVTFTK — within 0.2 log units, -0.159
- HMTAMQYVTIKDIADALGISKSSVSRALAGDVHNVSAQTIERVRAKALEMGYLRNNAAVNLR — higher, 0.22
- HMAHPRTHEALNPLWEKYLGPNAGNDFFLSGGTSLKALMFLKDLEKTLNKRIAIHAFFKDPTYEHVVSD — lower, -0.467
- HMPYHSEAWHKVMKSHWLTLSREEAYMHEGRTGASTINIVFQRELGREATQEEIESIYQEKSVLFNSYP — lower, -1.37
- HMPDTETLTPRQRQILDLVQELGFTTIETLAERFGVSAQTVRREIIRLQAGNFLQRFHGGAGLASGGIRSA — within 0.2 log units, -0.325
- HMGELRAPLPGVIVSIPVKEGDEVKAGQAILIIEAMKMESEISSPIDAKVAKIVVKERVLVQEGDILIILE — lower, -0.876
- HMTARYQQVEDYIVRRIQDGSWPPGHRLPSEHELVQQFGMSRMTVNRALRDLMQKGRIVRVAGVGSFVAQD — higher, 0.22
- HMSETLESYTTRLKQLEEIADSFQGVDKTFAIQAGREIRVMVVPEQISDDDMILLARDISNQIEENLDY — lower, -0.912
- HMGEVVSAPMPGTILSIKVSQGQTVKRGQVLLILEAMKMENEIVAPRDGVVVQISTTQGASVETGAPLVVL — within 0.2 log units, -0.118
- HMDELPKDILRSFGLPDKPWAMELLRNLRRDGFALDGETARAYAEMAAMKPPRTDARQWMTAADVAYRRG — higher, 0.105
- HMEEYTVEFVKHKVKRKQTLYTISKLYNVSIDDIIKYNSQIEGFNLSRRMELNIPVKKTLIVKNE — lower, -0.823
- HMNRIFQERVVPAELDTLRADKVAASLFSDFSRNELAHWIKMGDLSINGGVKKAKDKLFEGDVLILDVEIV — lower, -0.679
- HMELEDTYTKNLDASLARLDEYQASKGLTDEQVDEVINSLIADAENIIMGVFTPELIDSKLKAMNYDQDV — within 0.2 log units, -0.17
- HMNMAVELEDGTQIFVFSEDGEFAGKRAVIADEEGRPTEENAPAGTHTLRDGRSIVVGEGGVIESVVET — lower, -0.708
- HMNFDLDSFKQRMTLDGLYFGNEKQDVIALNNLSERYQLTWFDVYQLAKETSSNHKILPKRILVKLQQ — higher, 0.158
- HMLLTEETLPQLKQIVDEFPYFQIARMLYLKNLAVLNDIRFSVELKKMSIYVPDRRKLFTLIEGE — lower, -0.69
- HMKAETILAIPENQPERLFPNNEDEARKIYRDLAREWHTDRNKSPKAQDVFSHLSKLYDIVIDRIKNKTWT — higher, -0.0463
- HMSPLQLGNYNTLRITRFTDHGAYLDGGDVGEILMPKTYVLPEMKPGDEVRVFVYLDQEERLVGTTET — lower, -1.44
- HMEYYEDEELDRFRGRNSDQYSDAEIEEFNEILTTLRSEEVAGWIRSLQLREIALPDELKDDVILLVG — lower, -1.51
- HMKRNLVSVLDHIVGIGPKRRQSLRTHFGSLEKIKEASVEELAAAPGMNRTSAEAVRHFFDAQQELRGK — higher, 0.207
- HMGKIILLFSDDDGVFDTALYRVRNYDGHRFAQSLGNAEMKWRHSEDEYFDFVLTSLREDGYDIEEIE — lower, -0.686
- HMLTGADAEKATAAAQAEFPGGTVLRVETDADGTYEAHVRKADGTEVEVKMDKDFKVTSVEE — higher, -0.0221
- HMENTGFKDKKGNYIFDGDIVKDILGNIMKVEFKHFKWQLIPLNKTAFNMPMVDWLDLETETLNAEIIGN — lower, -1.69
- HMNAELSTVQAAEVLNVSRPFLIKLLEDGAIPHRKVGKHRRVRMEDVMSYKAAIDTEREAVLDQLAA — lower, -0.722
- HMKLSLKTQVKEYLLSYIRDKKLQPGDRLLTQRELAEMLHTSQKVAQMALNSLEEEGIIIRRLGSGSFLAR — within 0.2 log units, -0.227
- HMSDPSRKADFIAALSSLGGSAGNGKLREQLGWDEPTYDAVKQTLLDEGAITNGRGRGGSVALAG — higher, 0.146
- HMVSLSENQKIVLESLNTAMSARELMEILNLSDISHFRRNILNPLLLEGLIVRTKPDKPKSSKQKYIKANF — within 0.2 log units, -0.354
- HMGTESFGARIRKIREARDWTPAALAEATGQTPEFVARVERDEVAPPVAFLLRLAAALGVDPSTF — lower, -0.672
- HMNPNPYIVLGVDKSMPFGEIKKVYQRKRREFHPDSLVAKGLPDELLQKAQDKFIAIQEAYKSIEKNQV — higher, 0.0331
- HMKEFEINSQWKPSLEVYDILSVKGGISRNFIEDSIPEFVLYWRGRGDKSNTWDSKFVQHVKRQWNFYSGL — lower, -2.41
- HMAILDTALDVLSMNLKDNYTSFQILRQAAIAGKIAFNLTEKNPLGGVIEVELTGDDLETWIEAATW — lower, -0.697
- HMDSKYLRIFSTLIDEMEKMSPGEQLQSERELSQRFQVSPMTVRRALHKLSTEGYTSAIPGKGTFVRK — higher, -0.0388
- HMDPEEQIQSREIWEAVERALDGMQEKGRRVVIALLEGQTQLEVSRAAGISQPLISYYLKSFRTKVRTELG — within 0.2 log units, -0.269
- HMDTNPKVIITMDGVNVRSSASTGSDILFIAEKGEEYELISESGDFYKILYEGNKEGYVASWLVETSE — higher, -0.022
- HMETIELSAPGGVRLDKLIADGTELSRSAAVKLIEQGNVLVNGSPAGKKDIPAAGAAVEITLPEPQ — within 0.2 log units, -0.255
- HMELRSPMPGLIIEIPVSKGDIIKKDQSLIILEAMKMENVLTSPINGKIADIKVNVQDTVEKNNLLITFEN — lower, -1.23
- HMVTDTGAIEKVIDEVIAANPKQVQEIADQRAAGHEKPKTLGWLVGQIMKASGGKVNPAAVNEILLKKLG — higher, 0.00199
- HMALYSEQVSEIEKALMSLPPKYQLVMLLLYAEDLKYEQIAEILDEPIGTVKTKIHRARKILKERF — higher, -0.0112
- HMRPTHYSGPSVIAMINNRVWFSDGSRLAPGEHHDDLEVVGLSPPWSAKVRWQGVEFDVGLFE — lower, -0.946
- HMSQTDQALRHLIREAWATLPQRQQQAVELAYYEGLPDTEIAARLNQPVEEVKTSIVLGMAHLREALHSY — within 0.2 log units, -0.198
- HMNNLELSEEEKSVLTIIEKEGLIELDKLKTKLELSNKKWDKTLKFLTKNKLAKVVKNDNGLFVEL — higher, 0.0993
- HMELPPLQPGQPIDGRVEQQIRAGYYVVSVRGRGYEFQLPESARPGDLLRMVYLNDHPRLTFALLRIDNAN — lower, -0.546
- HMTIELAEGQHFLQISKSGAPMGNVVRDLIIQTLKITNGNQIKAAKILGISRAKLRYRIEQLGINITGKNI — higher, -0.0446
- HMVFADRLRALRKKSGLTQDEFSKQTGIGRSAVGMYESGKREPNYTTLSKVARFYHVSTDYLLGRTDTP — within 0.2 log units, -0.13
- HMQVAPDLMQRLTSQGHVDEKLSDALVHARQITNFEGRRRQMQFIGKLMRKLSEESIEAVKDALNEQRM — within 0.2 log units, -0.244
- HMKSARQIAILEIIAEKSIETQEDLADALRLRGFQVTQATVSRDIKELRLVKALAPDGTYRYATAEK — higher, 0.264
- HMVNKQERTYTILRDRIHSGSFAPLERLNIDALARELGVSPIPVREALRRLEAEGWVRFTPNVGAVVSP — higher, 0.308
- HMTKTSQEDEDIMRHLDELHTRWPFLGQRKLIEELKDQGIQIGRKRLRRLMKVMGIEAIAPK — higher, 0.173
- HMVSGLEILKIQVQDHPSDWRWALLLARTHYENGNREAAVRTLRPLQRLHPDRLEVMTLWALLA — within 0.2 log units, -0.222
- HMSEDTYNTLTKGTRVYNGVDYGAKYGYNPLYYFLNYNDLRIAYGADPAKLVEHYALFGIKENRVANRQIT — within 0.2 log units, -0.247
- HMLETLVYPNPTTDKILLSSPVDYHLFSLKGELVLEGRGSSIEVSQLSKGVYFLNTKTQTFKIIK — within 0.2 log units, -0.156
- HMKKILLGDVNLDGKVDVNDVTLLQRYIAGETEVITSKDALTATNFNKDGNIDVLDVTDIQTFIANSE — higher, 0.00934
- HMSSKAVLEKFEALFIDQMLQSMRKATVRSELFDSEGIKLYESLFDKEISEELAKSGGLGLTKDLEQQL — lower, -1.35
- HMYVPEVPVPDLLGRSEEEAKNLIEDLGLVFKVSKREYSKEYDEGHVMEQSVDEGAKVKENYPVEVVISR — within 0.2 log units, -0.325
- HMASMNPVWLEFPNIPWGSAGWRMGWGEDYMRRWAKWYISLAEVERQSYKSDWPEPQEWEGFYAFMEHGT — lower, -1.23
- HMTVKRNLVQEILRLKFRHPENFMPNRAFYQEVGINQMRWWDIFYGRKNINQEEYIALSKYF — within 0.2 log units, -0.352
- HMQDLAKRWVEEFGDLLYKYTLPRVSDSGIAKDLVQETFLAAWRNIDNFKGEASEKNWLFTILKNKIIDH — lower, -0.585
- HMSNDRSYLARLQDYYAEHRALPSYASIGALLGLRSKSSVAALVARLKLAGFVESTPDRRLAPTRRFF — higher, 0.344
- HMRLYTQDVAVLNRDVIQGEVITSDMVTTVNVHKRTVPTGALNLSEIPGNVAKFNIPASIPITASMVTK — within 0.2 log units, -0.171
- HMADYYETLGVERTASEEDIKRAYRKMSRKYHPDIAGPEFEEKFKEVNTAYEVLSDPDKRRMYDAGVDPND — higher, 0.0648
- HMQLGEEAGDELVAIVRSVINDNDKALADYLAGKSSALKFLLGQVMRQTKGRADHALVQSLLEAELEAL — lower, -0.586
- HMQTTKTGTITASSLYVRSGASTSHKVLGTVSKGKTVQIKDTQDGWHKISYNGDHGWVSGKYVSTT — higher, ≥ 0.43
- HMRTPTGVQAYLSSGLIKGIGEKTAAAIVDKFGTDALSVIETDPERLLEIPGITPNKLREILESYNQH — higher, 0.174
- HMPDAIPLETIIKNVNVLAGFLINSKTFTEDDIVMAYNNIMKIKGDHTDEKTLTNDVYTLLTEMN — lower, -1.22
- HMSSIYVYPNPTANRIYIQADNIKKAELFDLMGRKVRSTNQPQIDISRLSRGNYILQVKTQNNTQSFKIIK — higher, 0.0347
- HMEMDPKELGRQVLAKRKEKGWSQEQLGKMAEISRNYVSQIERGEADSISIKIINRLAIALGVSPSDLGE — higher, 0.21
- HMTAQGDSSDAVQRAITEILRHEDPSHPFSDQQLVIKLRTMDISVSRRTVTKYRKLLHIPSSTHRK — higher, 0.0972
